Test results from patent US20160175440A1, “COMPOSITIONS AND METHODS FOR THE […] OF BURKHOLDERIA INFECTIONS” (Research Institute at Nationwide Children's Hospital, published 2016).

Target: Integration host factor (IHF alpha/beta heterodimer) (Escherichia coli, UniProt P0A6X7;P0A6Y1 SEQ:1-99,SEQ:1-94)
Test: footprint; DNase I footprint at 50 nM IHF; hypersensitive site indicative of DNA bending
Settings: tags: crystallographically pure IHF, gift of Howard Nash, NIH; no tag stated; label: 32P end label

Integration host factor (IHF alpha/beta heterodimer), sequence (P0A6X7 whole entry, chain 1 of 2): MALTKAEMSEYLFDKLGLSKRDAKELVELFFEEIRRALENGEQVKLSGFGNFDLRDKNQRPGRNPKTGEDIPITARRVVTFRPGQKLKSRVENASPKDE
Integration host factor (IHF alpha/beta heterodimer), sequence (P0A6Y1 whole entry, chain 2 of 2): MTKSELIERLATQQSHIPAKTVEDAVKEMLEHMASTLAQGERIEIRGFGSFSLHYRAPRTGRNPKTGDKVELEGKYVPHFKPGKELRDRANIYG

B1: 386 bp BCAL0339-BCAL0340 intergenic region (T6SS gene cluster upstream) (dsDNA)
DNA 1: TCTCAACGATTTA
DNA 2: TAAATCGTTGAGA
Question: Does B1 bind?
Answer: binds
